Data taken from paper PMC6985235.
pKd: −log10 of the molar value.

Experiments:
[1] = target: binding immunoglobulin protein (TvBip); assay: co-immunoprecipitation with anti-HA antibody, Western blotting; conditions: three experiments
[2] = target: Myb3 (endogenous); assay: as above; conditions: for ratio to parent: three experiments
[3] = target: heat shock protein 72 (TvHSP72); assay: as above; conditions: three experiments
[4] = target: hydrogenosomal heat shock protein 70 (HdHSP70); assay: as above; conditions: total lysate, three experiments
[5] = target: TvMyb3IPhmw; assay: as above; conditions: P100 fraction; three experiments
[6] = target: His-TvCyP2 (Trichomonas vaginalis) (UniProt A2DLL4); assay: ITC

Substance | ratio to parent ([1]; total lysate) | ratio to parent ([2]; total lysate, ** p < 0.01) | ratio to parent ([3]; total lysate, ** p < 0.01) | ratio to parent ([4]; ** p < 0.01) | ratio to parent ([1]; P15 fraction) | ratio to parent ([1]; P100 fraction) | ratio to parent ([1]; total lysate, ** p < 0.01) | other: relative signal intensity [2] | ratio to parent ([2]; P15 fraction, * p < 0.05) | ratio to parent ([2]; P100 fraction, ** p < 0.01) | ratio to parent ([3]; P100 fraction, * p < 0.05) | ratio to parent ([3]; S100 fraction, ** p < 0.01) | ratio to parent [5] | ratio to parent [4] | pKd [6]
HA-TvCyP1 (from UniProt A2DT06) R63A | 1 | 0.6 | 0.5 | 0.1 | – | – | – | – | – | – | – | – | – | – | –
HA-TvCyP2 (from UniProt A2DLL4) R75A | – | 0.4 | 1.6 | – | 1 | 1 | 0 | 0.1 | 0.7 | 0.5 | 0.7 | 0.6 | 1 | 0.9 | –
His-Myb3^53–180 (domain or fragment) | – | – | – | – | – | – | – | – | – | – | – | – | – | – | 4.26
